# Assay results from the supplement of paper PMC9116672.
# ± gives the standard deviation of the averaged measurements or the uncertainty stated by the source.
# Columns and labels:
# [1] = duplex melting temperature (HRM, EvaGreen); higher = more stable duplex
# Protocol: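 Listed DNA strand annealed 1:1 with its complementary strand (95 °C 5 min, 0.1 °C/s to 20 °C). Melted in 1x NNE buffer (500 mM NaCl, 10 mM Na2HPO4, 1 mM EDTA, pH 7.0) with 1x EvaGreen on a LightCycler96 (37 to 97 °C, 0.1 °C/s). Tm is the peak of -dF/dT at the stated total duplex concentration; 4 replicates are averaged. PS oligos are non-stereospecific (Rp/Sp mixtures).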
# [2] = duplex formation free energy ΔG50 (Van't Hoff fit of HRM Tm); higher = less stable duplex; conditions: temperature for dG: 50 °C, NaCl: 500 mM (unadjusted)
# Protocol: (§1)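 Duplex of the listed DNA strand with its complement, in 1x NNE buffer (500 mM NaCl, pH 7.0) with 1x EvaGreen. ΔH and ΔS come from a Van't Hoff linear fit of 1/Tm against ln(CT/4) over 1-20 uM, using HRM Tm values.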
# [3] = duplex formation enthalpy ΔH (Van't Hoff fit of HRM Tm); higher = less exothermic duplex formation; conditions: temperature for dG: 50 °C, NaCl: 500 mM (unadjusted)
# Protocol: as §1
# [4] = duplex formation entropy ΔS (Van't Hoff fit of HRM Tm); higher = smaller entropy loss on duplex formation; conditions: temperature for dG: 50 °C, NaCl: 500 mM (unadjusted)
# Protocol: as §1
# [5] = duplex concentration 1 µM, backbone: PS-PO (listed strand fully phosphorothioate, complement phosphodiester)
# [6] = duplex concentration 1 µM, backbone: PS-PS (both strands fully phosphorothioate)
# [7] = duplex concentration 2.5 µM, backbone: PO-PO (both strands phosphodiester DNA)
# [8] = duplex concentration 2.5 µM, backbone: PS-PO (listed strand fully phosphorothioate, complement phosphodiester)
# [9] = duplex concentration 2.5 µM, backbone: PS-PS (both strands fully phosphorothioate)
# [10] = duplex concentration 5 µM, backbone: PO-PO (both strands phosphodiester DNA)
# [11] = duplex concentration 5 µM, backbone: PS-PO (listed strand fully phosphorothioate, complement phosphodiester)
# [12] = duplex concentration 5 µM, backbone: PS-PS (both strands fully phosphorothioate)
# [13] = duplex concentration 7.5 µM, backbone: PO-PO (both strands phosphodiester DNA)
# [14] = duplex concentration 7.5 µM, backbone: PS-PO (listed strand fully phosphorothioate, complement phosphodiester)
# [15] = duplex concentration 7.5 µM, backbone: PS-PS (both strands fully phosphorothioate)
# [16] = duplex concentration 10 µM, backbone: PO-PO (both strands phosphodiester DNA)
# [17] = duplex concentration 10 µM, backbone: PS-PO (listed strand fully phosphorothioate, complement phosphodiester)
# [18] = duplex concentration 10 µM, backbone: PS-PS (both strands fully phosphorothioate)
# [19] = duplex concentration 15 µM, backbone: PO-PO (both strands phosphodiester DNA)
# [20] = duplex concentration 15 µM, backbone: PS-PO (listed strand fully phosphorothioate, complement phosphodiester)
# [21] = duplex concentration 15 µM, backbone: PS-PS (both strands fully phosphorothioate)
# [22] = duplex concentration 20 µM, backbone: PO-PO (both strands phosphodiester DNA)
# [23] = duplex concentration 20 µM, backbone: PS-PO (listed strand fully phosphorothioate, complement phosphodiester)
# [24] = duplex concentration 20 µM, backbone: PS-PS (both strands fully phosphorothioate)
# [25] = backbone: PO-PO (both strands phosphodiester DNA)
# [26] = backbone: PS-PO (listed strand fully phosphorothioate, complement phosphodiester)
# [27] = backbone: PS-PS (both strands fully phosphorothioate)
Sequence,"duplex melting temperature [1, 5] [°C]","duplex melting temperature [1, 6] [°C]","duplex melting temperature [1, 7] [°C]","duplex melting temperature [1, 8] [°C]","duplex melting temperature [1, 9] [°C]","duplex melting temperature [1, 10] [°C]","duplex melting temperature [1, 11] [°C]","duplex melting temperature [1, 12] [°C]","duplex melting temperature [1, 13] [°C]","duplex melting temperature [1, 14] [°C]","duplex melting temperature [1, 15] [°C]","duplex melting temperature [1, 16] [°C]","duplex melting temperature [1, 17] [°C]","duplex melting temperature [1, 18] [°C]","duplex melting temperature [1, 19] [°C]","duplex melting temperature [1, 20] [°C]","duplex melting temperature [1, 21] [°C]","duplex melting temperature [1, 22] [°C]","duplex melting temperature [1, 23] [°C]","duplex melting temperature [1, 24] [°C]","duplex formation free energy ΔG50 [2, 25] [kcal/mol]","duplex formation free energy ΔG50 [2, 26] [kcal/mol]","duplex formation free energy ΔG50 [2, 27] [kcal/mol]","duplex formation enthalpy ΔH [3, 25] [kcal/mol]","duplex formation enthalpy ΔH [3, 26] [kcal/mol]","duplex formation enthalpy ΔH [3, 27] [kcal/mol]","duplex formation entropy ΔS [4, 25] [cal/mol/K]","duplex formation entropy ΔS [4, 26] [cal/mol/K]","duplex formation entropy ΔS [4, 27] [cal/mol/K]","duplex melting temperature ([1]; duplex concentration 1 µM, backbone: PO-PO (both strands phosphodiester DNA)) [°C]"
CTCGGAGGCCCCATTTA,60.53 ± 0.43,56.27 ± 0.32,69.45 ± 0.55,63.65 ± 0.44,59.31 ± 0.12,72.34 ± 0.17,66.33 ± 0.23,61.51 ± 0.1,73.72 ± 0.22,67.63 ± 0.23,62.63 ± 0.089,74.68 ± 0.39,68.67 ± 0.14,63.34 ± 0.086,76.04 ± 0.34,69.97 ± 0.17,64.55 ± 0.08,76.97 ± 0.28,70.91 ± 0.14,65.31 ± 0.13,-13.2 ± 0.19,-11.87 ± 0.061,-11.22 ± 0.074,-68.7 ± 2.7,-66 ± 1.2,-73.9 ± 2,-172 ± 7.8,-167 ± 3.5,-194 ± 6.1,
TGCCATGTTGAAAACC,,44.3 ± 0.54,63.56 ± 0.48,56.23 ± 0.2,46.98 ± 0.17,65.51 ± 0.22,58.37 ± 0.066,48.71 ± 0.25,66.6 ± 0.21,59.53 ± 0.1,49.82 ± 0.18,67.59 ± 0.15,60.34 ± 0.13,50.73 ± 0.22,68.82 ± 0.18,61.44 ± 0.11,51.73 ± 0.34,69.71 ± 0.33,62.27 ± 0.073,52.86 ± 0.13,-12.4 ± 0.13,-10.63 ± 0.058,-8.447 ± 0.02,-79.2 ± 2.6,-76.1 ± 1.9,-74 ± 2.4,-207 ± 7.6,-203 ± 5.8,-203 ± 7.4,61.32 ± 0.21
TTCTACATCCATCTTAATCCCA,59.7,49.9 ± 0.91,69.29 ± 0.65,60.3 ± 0.71,52.2 ± 0.78,70.58 ± 0.52,61.7 ± 1,54.2 ± 0.62,71.5 ± 0.27,63 ± 0.72,55.53 ± 0.29,72.3 ± 0.098,63.81 ± 0.27,56.28 ± 0.17,73.48 ± 0.21,64.85 ± 0.098,57.3 ± 0.083,74.36 ± 0.2,65.55 ± 0.094,57.98 ± 0.21,-14.7 ± 0.46,-12 ± 0.2,-9.752 ± 0.037,-99.4 ± 7.2,-90.6 ± 5.1,-78.1 ± 2.2,-262 ± 21,-243 ± 15,-212 ± 6.8,
CTACCAGCGGCGCCGTT,68.2 ± 0.97,63.52 ± 0.26,78.66 ± 0.28,71.69 ± 0.5,66.46 ± 0.23,80.52 ± 0.35,74.62 ± 0.28,68.88 ± 0.19,81.81 ± 0.23,75.97 ± 0.31,70.02 ± 0.24,82.55 ± 0.18,76.92 ± 0.17,71 ± 0.18,83.52 ± 0.2,78.15 ± 0.26,72.23 ± 0.12,84.24 ± 0.2,79.05 ± 0.47,73.06 ± 0.32,-16.7 ± 0.4,-13.3 ± 0.16,-12.69 ± 0.1,-92.6 ± 4.5,-66.1 ± 2.3,-72.5 ± 1.8,-235 ± 13,-163 ± 6.5,-185 ± 5.4,
CTAAACTGTTATAGCCGG,,46.18 ± 0.36,66.43 ± 0.32,58.77 ± 0.43,48.97 ± 0.4,67.83 ± 0.25,60.28 ± 0.38,51.09 ± 0.26,68.83 ± 0.28,61.66 ± 0.5,52.63 ± 0.18,70.13 ± 0.37,62.55 ± 0.4,53.4 ± 0.36,71.19 ± 0.13,63.71 ± 0.22,55.1 ± 0.25,72.08 ± 0.077,64.43 ± 0.18,56.27 ± 0.23,-13.2 ± 0.46,-11.2 ± 0.12,-8.979 ± 0.029,-83.8 ± 8.2,-77.5 ± 3.3,-62.5 ± 2.5,-219 ± 24,-205 ± 9.7,-166 ± 7.6,
